Measurements: PMC4694764 (Molecular Biology of the Cell, 2016)

Biological target: GST-MICAL-L2-ACT (aa 261-1009) (mouse, UniProt Q3TN34 261-1009)
Assay: pull-down

Sequence of GST-MICAL-L2-ACT (aa 261-1009) (Q3TN34 261-1009): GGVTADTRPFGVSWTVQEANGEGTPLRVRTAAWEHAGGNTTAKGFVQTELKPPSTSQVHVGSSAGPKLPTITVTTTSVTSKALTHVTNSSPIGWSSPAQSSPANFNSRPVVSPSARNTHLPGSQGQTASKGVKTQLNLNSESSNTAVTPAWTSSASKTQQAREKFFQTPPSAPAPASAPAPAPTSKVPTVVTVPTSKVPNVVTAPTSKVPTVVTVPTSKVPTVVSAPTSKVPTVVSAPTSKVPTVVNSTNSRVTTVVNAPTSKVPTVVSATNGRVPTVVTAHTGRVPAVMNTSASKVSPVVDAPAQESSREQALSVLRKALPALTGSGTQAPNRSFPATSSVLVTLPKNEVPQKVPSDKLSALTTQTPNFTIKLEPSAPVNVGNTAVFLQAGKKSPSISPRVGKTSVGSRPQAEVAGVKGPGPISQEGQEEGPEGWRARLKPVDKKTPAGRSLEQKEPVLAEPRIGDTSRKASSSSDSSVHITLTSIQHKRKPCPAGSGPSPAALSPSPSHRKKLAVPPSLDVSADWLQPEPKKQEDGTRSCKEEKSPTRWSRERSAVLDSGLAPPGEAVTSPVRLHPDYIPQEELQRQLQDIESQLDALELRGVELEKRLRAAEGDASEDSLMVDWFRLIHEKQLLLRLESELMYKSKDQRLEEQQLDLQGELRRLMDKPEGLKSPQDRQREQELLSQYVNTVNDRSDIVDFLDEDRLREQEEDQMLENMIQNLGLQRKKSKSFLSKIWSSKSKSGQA

fold of pull-down, lysates of insulin-stimulated against basal cells: ~2 fold
B1: GFP-Rab13 (expressed in L6-GLUT4myc muscle cells) (natural protein, UniProt P51153 1-203, looked up)
chain: MAKAYDHLFKLLLIGDSGVGKTCLIIRFAEDNFNNTYISTIGIDFKIRTVDIEGKKIKLQVWDTAGQERFKTITTAYYRGAMGIILVYDITDEKSFENIQNWMKSIKENASAGVERLLLGNKCDMEAKRKVQKEQADKLAREHGIRFFETSAKSSMNVDEAFSSLARDILLKSGGRRSGNGNKPPSTDLKTCDKKNTNKCSLG
